Data: PMC3289903

Molecular target: recombinant Tp0956 (non-lipidated, residues 2-302) (Treponema pallidum)
Assay: AUC

recombinant Tp0956 (non-lipidated, residues 2-302) (Treponema pallidum), sequence (O83922 23-323 limits assumed): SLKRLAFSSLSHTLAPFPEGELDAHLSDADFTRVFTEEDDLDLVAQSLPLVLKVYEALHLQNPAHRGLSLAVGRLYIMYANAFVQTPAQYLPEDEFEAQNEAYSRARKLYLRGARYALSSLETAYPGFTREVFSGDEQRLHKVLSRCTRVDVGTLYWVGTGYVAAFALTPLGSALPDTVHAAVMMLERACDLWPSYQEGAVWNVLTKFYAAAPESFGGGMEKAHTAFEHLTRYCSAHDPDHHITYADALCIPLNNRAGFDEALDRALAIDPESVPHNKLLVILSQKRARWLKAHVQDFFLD

- Kd(1), first binding event (macroscopic): 60 nM
- cooperativity factor α2 (second binding event): 1.5
- cooperativity factor α3 (third binding event): 0.34
Substance: recombinant Tp0957 (non-lipidated, residues 7-328) (natural protein)
